Measurements taken from patent publication US20190359693A1.

How the values were obtained:
[1] = biological target: hemagglutinin (HA) of influenza A/Wisconsin/67/05 (H3N2) (influenza A virus); assay: cell-based or functional assay
[2] = biological target: hemagglutinin (HA) of influenza B/Brisbane/60/08 (Victoria) (influenza B virus); assay: cell-based or functional assay
[3] = biological target: hemagglutinin (HA) of influenza B/Florida/04/06 (Yamagata) (influenza B virus); assay: cell-based or functional assay
[4] = biological target: HA of H1N1 A/Brisbane/59/07 (influenza A virus); assay: BLI steady state
[5] = biological target: HA of H1N1 A/New Caledonia/20/1999 (influenza A virus); assay: BLI steady state
[6] = biological target: HA of H3N2 A/Brisbane/10/2007 (influenza A virus); assay: BLI steady state
[7] = biological target: HA of H3N2 A/Wisconsin/67/2005 (influenza A virus); assay: BLI steady state
[8] = biological target: HA of H7N3 A/NIBRG/60 (A/mallard/NL/12/00) (influenza A virus); assay: BLI steady state
[9] = biological target: HA of H7N9 A/Hangzhou/1/2013 (influenza A virus); assay: BLI steady state
[10] = biological target: HA of B/Brisbane/60/2008 (Victoria) (influenza B virus); assay: cell-based or functional assay
[11] = biological target: HA of B/Florida/04/2006 (Yamagata) (influenza B virus); assay: cell-based or functional assay
[12] = biological target: HA of H1N1 A/Brisbane/59/07 (influenza A virus); assay: cell-based or functional assay
[13] = biological target: HA of H1N1 A/New Caledonia/20/1999 (influenza A virus); assay: cell-based or functional assay
[14] = biological target: HA of H3N2 A/Brisbane/10/2007 (influenza A virus); assay: cell-based or functional assay
[15] = biological target: HA of H3N2 A/Wisconsin/67/2005 (influenza A virus); assay: cell-based or functional assay
[16] = biological target: HA of H5N1 A/Vietnam/1194/04 (influenza A virus); assay: cell-based or functional assay
[17] = biological target: HA of H7N3 A/NIBRG/60 (A/mallard/NL/12/00) (influenza A virus); assay: cell-based or functional assay
[18] = biological target: hemagglutinin (HA) of influenza A/Brisbane/10/07 (H3N2) (influenza A virus A/Brisbane/10/07 (H3N2)); assay: cell-based or functional assay
[19] = biological target: hemagglutinin (HA) of influenza A/New York/107/03 (PR8) (influenza A virus A/New York/107/03 (PR8)); assay: cell-based or functional assay
[20] = biological target: hemagglutinin (HA) of influenza A/chicken/Germany/n/49 (H10N7) (influenza A virus A/chicken/Germany/n/49 (H10N7)); assay: cell-based or functional assay
[21] = biological target: hemagglutinin (HA) of influenza A/waterfowl/Hong Kong/MPA892/06 (H4) (influenza A virus A/waterfowl/Hong Kong/MPA892/06 (H4)); assay: cell-based or functional assay
[22] = biological target: hemagglutinin (HA) of influenza virus H1N1 A/California/07/09 (influenza A virus); assay: cell-based or functional assay
[23] = biological target: hemagglutinin (HA) of influenza virus H1N1 A/Puerto Rico/8/34-MA (influenza A virus); assay: cell-based or functional assay
[24] = biological target: hemagglutinin (HA) of influenza virus H3N2 A/Wisconsin/67/05 (influenza A virus); assay: cell-based or functional assay
[25] = biological target: hemagglutinin (HA) of influenza virus H5N1 A/Vietnam/1194/04 (influenza A virus); assay: cell-based or functional assay
[26] = biological target: HA of H3N2 A/Brisbane/10/2007 (influenza A virus); assay: AlphaLISA competition vs 39.29
[27] = biological target: HA of H3N2 A/Brisbane/10/2007 (influenza A virus); assay: AlphaLISA competition vs CR8020
[28] = biological target: HA of H3N2 A/Wisconsin/67/2005 (influenza A virus); assay: AlphaLISA competition vs CR8020
[29] = biological target: HA of H3N2 A/Brisbane/10/2007 (influenza A virus); assay: AlphaLISA competition vs CR8057
[30] = biological target: HA of H3N2 A/Wisconsin/67/2005 (influenza A virus); assay: AlphaLISA competition vs CR8057
[31] = biological target: HA of B/Brisbane/60/2008 (Victoria) (influenza B virus); assay: AlphaLISA competition vs CR9114
[32] = biological target: HA of H1N1 A/New Caledonia/20/1999 (influenza A virus); assay: AlphaLISA competition vs CR9114
[33] = biological target: HA of H3N2 A/Brisbane/10/2007 (influenza A virus); assay: AlphaLISA competition vs CR9114
[34] = biological target: HA of H3N2 A/Wisconsin/67/2005 (influenza A virus); assay: AlphaLISA competition vs CR9114
[35] = biological target: HA of H5N1 A/Vietnam/1203/2004 (influenza A virus); assay: AlphaLISA competition vs CR9114
[36] = biological target: HA of H3N2 A/Brisbane/10/2007 (influenza A virus); assay: AlphaLISA competition vs SD1036
[37] = biological target: HA of H3N2 A/Brisbane/10/2007 (influenza A virus); assay: AlphaLISA competition vs SD1038
[38] = biological target: HA of B/Brisbane/60/2008 (Victoria) (influenza B virus); assay: AlphaLISA competition vs SD1083
[39] = biological target: HA of B/Florida/04/2006 (Yamagata) (influenza B virus); assay: AlphaLISA competition vs SD1083
[40] = biological target: HA of B/Brisbane/60/2008 (Victoria) (influenza B virus); assay: AlphaLISA competition vs SD1084
[41] = biological target: HA of B/Florida/04/2006 (Yamagata) (influenza B virus); assay: AlphaLISA competition vs SD1084
[42] = biological target: HA of B/Brisbane/60/2008 (Victoria) (influenza B virus); assay: AlphaLISA competition vs SD1085
[43] = biological target: HA of B/Florida/04/2006 (Yamagata) (influenza B virus); assay: AlphaLISA competition vs SD1085
[44] = biological target: HA of B/Brisbane/60/2008 (Victoria) (influenza B virus); assay: AlphaLISA competition vs SD1086
[45] = biological target: HA of B/Florida/04/2006 (Yamagata) (influenza B virus); assay: AlphaLISA competition vs SD1086
[46] = biological target: HA of B/Brisbane/60/2008 (Victoria) (influenza B virus); assay: AlphaLISA competition vs SD1087
[47] = biological target: HA of B/Florida/04/2006 (Yamagata) (influenza B virus); assay: AlphaLISA competition vs SD1087

SD1036 (VHH), sequence (VHH): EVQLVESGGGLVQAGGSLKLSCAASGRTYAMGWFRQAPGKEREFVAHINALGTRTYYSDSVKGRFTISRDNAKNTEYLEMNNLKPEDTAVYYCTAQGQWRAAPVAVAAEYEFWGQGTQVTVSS

Question: Which ADCC induction (EC50 grade, FcγRIIIa reporter bioassay) [1] does the source give for CR9114 (antibody) here?
Answer: The ADCC induction (EC50 grade, FcγRIIIa reporter bioassay) was under 0.1 µg/mL.

Question: And the ADCC induction (EC50 grade, FcγRIIIa reporter bioassay) [2]?
Answer: The ADCC induction (EC50 grade, FcγRIIIa reporter bioassay) was under 0.1 µg/mL.

Question: What about the ADCC induction (EC50 grade, FcγRIIIa reporter bioassay) [3] of the same substance?
Answer: Its ADCC induction (EC50 grade, FcγRIIIa reporter bioassay) is under 0.1 µg/mL.

Question: How did the ADCC induction (EC50 grade, FcγRIIIa reporter bioassay) [1] turn out when CR9114-LALA (antibody) was run?
Answer: Its ADCC induction (EC50 grade, FcγRIIIa reporter bioassay) is over 0.5 µg/mL.

Question: And the ADCC induction (EC50 grade, FcγRIIIa reporter bioassay) [2]?
Answer: The ADCC induction (EC50 grade, FcγRIIIa reporter bioassay) was over 0.5 µg/mL.

Question: What about the ADCC induction (EC50 grade, FcγRIIIa reporter bioassay) [3] of the same substance?
Answer: Its ADCC induction (EC50 grade, FcγRIIIa reporter bioassay) is over 0.5 µg/mL.

Question: How did the Kd [4] turn out when SD1036 (VHH) was run?
Answer: The Kd was 290 nM.

Question: And the Kd [5]?
Answer: Its Kd is 230 nM.

Question: And the Kd [6]?
Answer: The Kd was 10 nM.

Question: What about the Kd [7] of the same substance?
Answer: Its Kd is 122 nM.

Question: What about the Kd [8] of the same substance?
Answer: The Kd was 2 nM.

Question: And the Kd [9]?
Answer: The Kd was 3 nM.

Question: And the VNA titer [10]?
Answer: Its VNA titer is over 1000 nM.

Question: And the VNA titer [11]?
Answer: The VNA titer was over 1000 nM.

Question: And the VNA titer [12]?
Answer: Its VNA titer is over 1000 nM.

Question: And the VNA titer [13]?
Answer: The VNA titer was over 1000 nM.

Question: What about the VNA titer [14] of the same substance?
Answer: The VNA titer was 86.7 nM.

Question: And the VNA titer [15]?
Answer: Its VNA titer is over 1000 nM.

Question: What about the VNA titer [16] of the same substance?
Answer: Its VNA titer is over 1000 nM.

Question: What about the VNA titer [17] of the same substance?
Answer: The VNA titer was 10.9 nM.

Question: What about the VNA IC50 [18] of the same substance?
Answer: Its VNA IC50 is 59 nM.

Question: And the VNA IC50 [19]?
Answer: Its VNA IC50 is 11 nM.

Question: And the VNA IC50 [20]?
Answer: The VNA IC50 was 10 nM.

Question: And the VNA IC50 [21]?
Answer: Its VNA IC50 is 44 nM.

Question: And the neutralization titer [22]?
Answer: Its neutralization titer is under 1000 nM.

Question: What about the neutralization titer [23] of the same substance?
Answer: Its neutralization titer is under 1000 nM.

Question: And the neutralization titer [24]?
Answer: Its neutralization titer is under 1000 nM.

Question: What about the neutralization titer [25] of the same substance?
Answer: The neutralization titer was under 1000 nM.

Question: What about the pIC50 [26] of the same substance?
Answer: Its pIC50 is 9.2.

Question: And the pIC50 [27]?
Answer: Its pIC50 is 9.2.

Question: And the pIC50 [28]?
Answer: The pIC50 was 7.2.

Question: What about the pIC50 [29] of the same substance?
Answer: The pIC50 was under 7.

Question: What about the pIC50 [30] of the same substance?
Answer: Its pIC50 is under 7.

Question: What about the pIC50 [31] of the same substance?
Answer: The pIC50 was under 7.

Question: And the pIC50 [32]?
Answer: The pIC50 was under 7.

Question: What about the pIC50 [33] of the same substance?
Answer: Its pIC50 is 9.4.

Question: And the pIC50 [34]?
Answer: Its pIC50 is 7.8.

Question: What about the pIC50 [35] of the same substance?
Answer: Its pIC50 is under 7.

Question: What about the pIC50 [36] of the same substance?
Answer: The pIC50 was 9.1.

Question: What about the pIC50 [37] of the same substance?
Answer: The pIC50 was 9.3.

Question: And the pIC50 [38]?
Answer: Its pIC50 is under 7.

Question: And the pIC50 [39]?
Answer: The pIC50 was under 7.

Question: And the pIC50 [40]?
Answer: Its pIC50 is under 7.

Question: What about the pIC50 [41] of the same substance?
Answer: Its pIC50 is under 7.

Question: And the pIC50 [42]?
Answer: Its pIC50 is under 7.

Question: And the pIC50 [43]?
Answer: Its pIC50 is under 7.

Question: What about the pIC50 [44] of the same substance?
Answer: The pIC50 was under 7.

Question: What about the pIC50 [45] of the same substance?
Answer: Its pIC50 is under 7.

Question: What about the pIC50 [46] of the same substance?
Answer: The pIC50 was under 7.

Question: And the pIC50 [47]?
Answer: The pIC50 was under 7.
